B1: Isoform 1 of Cyclin-dependent kinase 4 (Homo sapiens), P11802-1 (parent)
chain: MATSRYEPVAEIGVGAYGTVYKARDPHSGHFVALKSVRVPNGGGGGGGLPISTVREVALLRRLEAFEHPNVVRLMDVCATSRTDREIKVTLVFEHVDQDLRTYLDKAPPPGLPAETIKDLMRQFLRGLDFLHANCIVHRDLKPENILVTSGGTVKLADFGLARIYSYQMALTPVVVTLWYRAPEVLLQSTYATPVDMWSVGCIFAEMFRRKPLFCGNSEADQLGKIFDLIGLPPEDDWPRDVSLPRGAFPPRGPRPVQSVVPEMEESGAQLLLEMLTFNPHKRISAFRALQHSYLHKDEGNPE
B2: Protein FAM9B (Homo sapiens), Q8IZU0 (parent)
chain: MAAWGKKHAGKDPVRDECEERNRFTETREEDVTDEHGEREPFAETDEHTGANTKKPEDTAEDLTAKRKRMKMDKTCSKTKNKSKHALRKKQLKRQKRDYIHSLKLLNVLEEYITDEQKEEEEEEGEEEELIRIFQEQQKKWQQYRSVRRERLKEMKLLRDQFVKALEDFEDLCDRVFSDEDSELDN
partner: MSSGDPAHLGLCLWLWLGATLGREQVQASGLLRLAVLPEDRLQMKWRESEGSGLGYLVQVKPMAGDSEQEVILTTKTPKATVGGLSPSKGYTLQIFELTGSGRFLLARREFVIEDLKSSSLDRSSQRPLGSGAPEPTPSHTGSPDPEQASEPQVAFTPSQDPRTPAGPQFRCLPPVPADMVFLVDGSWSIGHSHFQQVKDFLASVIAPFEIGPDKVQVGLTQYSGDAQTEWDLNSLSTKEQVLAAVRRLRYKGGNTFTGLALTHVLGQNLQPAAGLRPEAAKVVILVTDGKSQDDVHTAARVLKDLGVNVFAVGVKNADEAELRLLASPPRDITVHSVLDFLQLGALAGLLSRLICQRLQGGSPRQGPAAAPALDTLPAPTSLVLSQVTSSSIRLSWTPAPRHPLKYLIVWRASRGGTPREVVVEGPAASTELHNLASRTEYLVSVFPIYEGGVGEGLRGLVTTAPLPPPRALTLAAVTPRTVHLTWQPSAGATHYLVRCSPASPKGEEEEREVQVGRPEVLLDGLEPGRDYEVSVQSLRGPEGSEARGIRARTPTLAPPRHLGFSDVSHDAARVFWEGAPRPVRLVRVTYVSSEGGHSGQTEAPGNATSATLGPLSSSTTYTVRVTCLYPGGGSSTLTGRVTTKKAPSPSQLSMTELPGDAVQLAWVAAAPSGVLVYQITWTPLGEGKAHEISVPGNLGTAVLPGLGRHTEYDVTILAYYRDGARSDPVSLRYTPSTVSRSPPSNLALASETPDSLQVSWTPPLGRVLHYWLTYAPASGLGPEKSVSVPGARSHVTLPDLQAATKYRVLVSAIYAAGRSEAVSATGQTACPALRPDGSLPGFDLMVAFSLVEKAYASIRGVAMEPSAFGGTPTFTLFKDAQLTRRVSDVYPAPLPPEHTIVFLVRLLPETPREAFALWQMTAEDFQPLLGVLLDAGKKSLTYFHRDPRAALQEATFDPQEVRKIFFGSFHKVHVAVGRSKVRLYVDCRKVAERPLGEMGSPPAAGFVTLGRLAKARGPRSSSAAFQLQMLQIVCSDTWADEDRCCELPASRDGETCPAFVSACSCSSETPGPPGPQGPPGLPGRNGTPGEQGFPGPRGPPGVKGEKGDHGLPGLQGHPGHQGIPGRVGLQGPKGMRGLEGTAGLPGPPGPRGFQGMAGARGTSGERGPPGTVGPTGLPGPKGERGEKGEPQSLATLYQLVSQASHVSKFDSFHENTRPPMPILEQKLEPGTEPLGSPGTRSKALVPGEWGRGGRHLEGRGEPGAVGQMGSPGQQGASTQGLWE
B3: Protein unc-45 homolog A (Homo sapiens), Q9H3U1 (parent)
chain: MTVSGPGTPEPRPATPGASSVEQLRKEGNELFKCGDYGGALAAYTQALGLDATPQDQAVLHRNRAACHLKLEDYDKAETEASKAIEKDGGDVKALYRRSQALEKLGRLDQAVLDLQRCVSLEPKNKVFQEALRNIGGQIQEKVRYMSSTDAKVEQMFQILLDPEEKGTEKKQKASQNLVVLAREDAGAEKIFRSNGVQLLQRLLDMGETDLMLAALRTLVGICSEHQSRTVATLSILGTRRVVSILGVESQAVSLAACHLLQVMFDALKEGVKKGFRGKEGAIIVDPARELKVLISNLLDLLTEVGVSGQGRDNALTLLIKAVPRKSLKDPNNSLTLWVIDQGLKKILEVGGSLQDPPGELAVTANSRMSASILLSKLFDDLKCDAERENFHRLCENYIKSWFEGQGLAGKLRAIQTVSCLLQGPCDAGNRALELSGVMESVIALCASEQEEEQLVAVEALIHAAGKAKRASFITANGVSLLKDLYKCSEKDSIRIRALVGLCKLGSAGGTDFSMKQFAEGSTLKLAKQCRKWLCNDQIDAGTRRWAVEGLAYLTFDADVKEEFVEDAAALKALFQLSRLEERSVLFAVASALVNCTNSYDYEEPDPKMVELAKYAKQHVPEQHPKDKPSFVRARVKKLLAAGVVSAMVCMVKTESPVLTSSCRELLSRVFLALVEEVEDRGTVVAQGGGRALIPLALEGTDVGQTKAAQALAKLTITSNPEMTFPGERIYEVVRPLVSLLHLNCSGLQNFEALMALTNLAGISERLRQKILKEKAVPMIEGYMFEEHEMIRRAATECMCNLAMSKEVQDLFEAQGNDRLKLLVLYSGEDDELLQRAAAGGLAMLTSMRPTLCSRIPQVTTHWLEILQALLLSSNQELQHRGAVVVLNMVEASREIASTLMESEMMEILSVLAKGDHSPVTRAAAACLDKAVEYGLIQPNQDGE
B4: ATP synthase mitochondrial F1 complex assembly factor 2 (Homo sapiens), Q8N5M1 (parent)
chain: MWRSCLRLRDGGRRLLNRPAGGPSASMSPGPTIPSPARAYAPPTERKRFYQNVSITQGEGGFEINLDHRKLKTPQAKLFTVPSEALAIAVATEWDSQQDTIKYYTMHLTTLCNTSLDNPTQRNKDQLIRAAVKFLDTDTICYRVEEPETLVELQRNEWDPIIEWAEKRYGVEISSSTSIMGPSIPAKTREVLVSHLASYNTWALQGIEFVAAQLKSMVLTLGLIDLRLTVEQAVLLSRLEEEYQIQKWGNIEWAHDYELQELRARTAAGTLFIHLCSESTTVKHKLLKE
partner: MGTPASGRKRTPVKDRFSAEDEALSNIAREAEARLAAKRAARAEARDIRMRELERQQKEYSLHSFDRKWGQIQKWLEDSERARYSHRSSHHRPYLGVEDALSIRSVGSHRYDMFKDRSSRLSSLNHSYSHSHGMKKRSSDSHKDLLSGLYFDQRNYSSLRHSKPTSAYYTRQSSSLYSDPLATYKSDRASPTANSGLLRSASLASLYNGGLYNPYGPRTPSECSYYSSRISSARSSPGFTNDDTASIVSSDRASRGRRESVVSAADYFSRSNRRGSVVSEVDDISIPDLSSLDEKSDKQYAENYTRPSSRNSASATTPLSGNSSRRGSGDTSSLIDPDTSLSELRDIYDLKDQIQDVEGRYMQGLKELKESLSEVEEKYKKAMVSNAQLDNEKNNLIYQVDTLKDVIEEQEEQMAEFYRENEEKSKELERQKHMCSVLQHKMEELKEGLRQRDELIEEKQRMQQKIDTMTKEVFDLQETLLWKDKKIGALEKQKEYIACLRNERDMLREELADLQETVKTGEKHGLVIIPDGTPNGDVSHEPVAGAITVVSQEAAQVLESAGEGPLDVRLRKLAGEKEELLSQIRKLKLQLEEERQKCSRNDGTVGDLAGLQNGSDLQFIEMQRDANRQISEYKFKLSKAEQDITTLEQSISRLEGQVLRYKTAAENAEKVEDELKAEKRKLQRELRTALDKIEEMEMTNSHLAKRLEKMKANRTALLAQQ
B5: Protein NOXP20 (Homo sapiens), Q8IWE2 (parent)
chain: MSDDAGDTLATGDKAEVTEMPNSDSLPEDAEVHCDSAAVSHEPTPADPRGEGHENAAVQGAGAAAIGPPVQPQDANALEPPLNGDVTEDTLAECIDSVSLEAEPRSEIPLQEQNYLAVDSPPSGGGWAGWGSWGKSLLSSASATVGHGLTAVKEKAGATLRIHGVNSGSSEGAQPNTENGVPEITDAATDQGPAESPPTSPSSASRGMLSAITNVVQNTGKSVLTGGLDALEFIGKKTMNVLAESDPGFKRTKTLMERTVSLSQMLREAKEKEKQRLAQQLTMERTAHYGMLFDEYQGLSHLEALEILSNESESKVQSFLASLDGEKLELLKNDLISIKDIFAAKELENEENQEEQGLEEKGEEFARMLTELLFELHVAATPDKLNKAMKRAHDWVEEDQTVVSVDVAKVSEEETKKEEKEEKSQDPQEDKKEEKKTKTIEEVYMSSIESLAEVTARCIEQLHKVAELILHGQEEEKPAQDQAKVLIKLTTAMCNEVASLSKKFTNSLTTVGSNKKAEVLNPMISSVLLEGCNSTTYIQDAFQLLLPVLQVSHIQTSCLKAQP
B6: Notch homolog 2 N-terminal-like protein A (Homo sapiens), Q7Z3S9 (parent)
chain: MCVTYHNGTGYCKCPEGFLGEYCQHRDPCEKNRCQNGGTCVAQAMLGKATCRCASGFTGEDCQYSTSHPCFVSRPCLNGGTCHMLSRDTYECTCQVGFTGKECQWTDACLSHPCANGSTCTTVANQFSCKCLTGFTGQKCETDVNECDIPGHCQHGGTCLNLPGSYQCQCLQGFTGQYCDSLYVPCAPSPCVNGGTCRQTGDFTFECNCLPETVRRGTELWERDREVWNGKEHDEN
partner: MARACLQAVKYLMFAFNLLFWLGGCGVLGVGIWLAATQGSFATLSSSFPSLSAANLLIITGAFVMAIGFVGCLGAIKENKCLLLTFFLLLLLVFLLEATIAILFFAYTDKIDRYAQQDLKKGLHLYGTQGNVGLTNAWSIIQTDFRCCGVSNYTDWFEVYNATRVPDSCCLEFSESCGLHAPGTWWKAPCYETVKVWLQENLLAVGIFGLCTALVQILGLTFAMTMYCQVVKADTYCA
B7: BICD family-like cargo adapter 2 (Homo sapiens), A1A5D9 (parent)
chain: MSSPDGPSFPSGPLSGGASPSGDEGFFPFVLERRDSFLGGGPGPEEPEDLALQLQQKEKDLLLAAELGKMLLERNEELRRQLETLSAQHLEREERLQQENHELRRGLAARGAEWEARAVELEGDVEALRAQLGEQRSEQQDSGRERARALSELSEQNLRLSQQLAQASQTEQELQRELDALRGQCQAQALAGAELRTRLESLQGENQMLQSRRQDLEAQIRGLREEVEKGEGRLQTTHEELLLLRRERREHSLELERARSEAGEALSALRRLQRRVSELEEESRLQDADVSAASLQSELAHSLDDGDQGQGADAPGDTPTTRSPKTRKASSPQPSPPEEILEPPKKRTSLSPAEILEEKEVEVAKLQDEISLQQAELQSLREELQRQKELRAQEDPGEALHSALSDRDEAVNKALELSLQLNRVSLERDSLSRELLRAIRQKVALTQELEAWQDDMQVVIGQQLRSQRQKELSASASSSTPRRAAPRFSLRLGPGPAGGFLSNLFRRT

Variants of: B1
Conditions: with ccnd1_human CCND1, P24385
ccnd1_human CCND1, P24385, sequence (P24385 whole entry): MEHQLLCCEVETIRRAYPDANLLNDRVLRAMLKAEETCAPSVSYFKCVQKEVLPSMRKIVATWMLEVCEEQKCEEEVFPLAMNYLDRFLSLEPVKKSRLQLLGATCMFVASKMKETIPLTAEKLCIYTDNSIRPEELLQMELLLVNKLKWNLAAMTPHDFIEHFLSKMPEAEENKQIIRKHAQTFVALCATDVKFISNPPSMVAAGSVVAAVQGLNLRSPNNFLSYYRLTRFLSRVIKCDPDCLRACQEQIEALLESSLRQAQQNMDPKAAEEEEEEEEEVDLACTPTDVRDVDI
G43E was tested, and the “effect of a mutation on the interaction” value was “with no effect”. In the case of V174G, the “effect of a mutation on the interaction” value is reported as “with no effect”. R255C was tested, and the “effect of a mutation on the interaction” value was “with no effect”. For S267P, the “effect of a mutation on the interaction” value was “with no effect”.

Variants of: B1
Conditions: with ccnd2_human CCND2, P30279
ccnd2_human CCND2, P30279, sequence (P30279 whole entry): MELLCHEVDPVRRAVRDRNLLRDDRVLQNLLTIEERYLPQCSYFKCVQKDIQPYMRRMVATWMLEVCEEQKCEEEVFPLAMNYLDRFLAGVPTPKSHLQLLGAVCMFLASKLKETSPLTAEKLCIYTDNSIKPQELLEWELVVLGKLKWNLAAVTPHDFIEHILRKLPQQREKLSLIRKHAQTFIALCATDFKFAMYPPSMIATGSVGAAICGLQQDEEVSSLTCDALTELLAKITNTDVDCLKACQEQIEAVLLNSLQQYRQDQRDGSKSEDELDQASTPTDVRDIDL
For G43E, the “effect of a mutation on the interaction” value was “with no effect”. For V174G, the “effect of a mutation on the interaction” value was “disrupting interaction strength”. For R255C, the “effect of a mutation on the interaction” value was “with no effect”. With S267P the “effect of a mutation on the interaction” value was “with no effect”.

Variants of: B1
Conditions: with cdn2c_human CDKN2C
With G43E the “effect of a mutation on the interaction” value was “with no effect”. V174G was tested, and the “effect of a mutation on the interaction” value was “with no effect”. In the case of R255C, the “effect of a mutation on the interaction” value is reported as “with no effect”. With S267P the “effect of a mutation on the interaction” value was “with no effect”.

Variants of: B1
Conditions: with ccnd3_human CCND3, P30281
ccnd3_human CCND3, P30281, sequence (P30281 whole entry): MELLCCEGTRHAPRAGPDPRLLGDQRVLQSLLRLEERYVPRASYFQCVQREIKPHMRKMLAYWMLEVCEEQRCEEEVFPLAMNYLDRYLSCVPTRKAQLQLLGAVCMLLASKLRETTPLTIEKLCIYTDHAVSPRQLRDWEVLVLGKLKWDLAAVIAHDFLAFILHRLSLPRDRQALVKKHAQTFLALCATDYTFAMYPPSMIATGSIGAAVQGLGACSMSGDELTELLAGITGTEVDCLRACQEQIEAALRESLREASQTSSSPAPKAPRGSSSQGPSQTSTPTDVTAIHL
With G43E the “effect of a mutation on the interaction” value was “with no effect”. With V174G the “effect of a mutation on the interaction” value was “with no effect”. With R255C the “effect of a mutation on the interaction” value was “with no effect”. With S267P the “effect of a mutation on the interaction” value was “with no effect”.

Variants of: B1
Conditions: with cdn2b_human CDKN2B
With R209C the “effect of a mutation on the interaction” value was “with no effect”.

Variants of: B1
Conditions: with ccnd3_human CCND3, P30281
Remark: another data set of the same source
R209C was tested, and the “effect of a mutation on the interaction” value was “with no effect”.

Variants of: B1
Conditions: with cdn2c_human CDKN2C
Remark: another data set of the same source
For R209C, the “effect of a mutation on the interaction” value was “with no effect”.

Variants of: B2
Conditions: with coka1_human COL20A1, Q9P218
In the case of R23H, the “effect of a mutation on the interaction” value is reported as “with no effect”.

Variants of: B3
Conditions: with trim1_human MID2, Q9UJV3
trim1_human MID2, Q9UJV3, sequence (Q9UJV3 whole entry): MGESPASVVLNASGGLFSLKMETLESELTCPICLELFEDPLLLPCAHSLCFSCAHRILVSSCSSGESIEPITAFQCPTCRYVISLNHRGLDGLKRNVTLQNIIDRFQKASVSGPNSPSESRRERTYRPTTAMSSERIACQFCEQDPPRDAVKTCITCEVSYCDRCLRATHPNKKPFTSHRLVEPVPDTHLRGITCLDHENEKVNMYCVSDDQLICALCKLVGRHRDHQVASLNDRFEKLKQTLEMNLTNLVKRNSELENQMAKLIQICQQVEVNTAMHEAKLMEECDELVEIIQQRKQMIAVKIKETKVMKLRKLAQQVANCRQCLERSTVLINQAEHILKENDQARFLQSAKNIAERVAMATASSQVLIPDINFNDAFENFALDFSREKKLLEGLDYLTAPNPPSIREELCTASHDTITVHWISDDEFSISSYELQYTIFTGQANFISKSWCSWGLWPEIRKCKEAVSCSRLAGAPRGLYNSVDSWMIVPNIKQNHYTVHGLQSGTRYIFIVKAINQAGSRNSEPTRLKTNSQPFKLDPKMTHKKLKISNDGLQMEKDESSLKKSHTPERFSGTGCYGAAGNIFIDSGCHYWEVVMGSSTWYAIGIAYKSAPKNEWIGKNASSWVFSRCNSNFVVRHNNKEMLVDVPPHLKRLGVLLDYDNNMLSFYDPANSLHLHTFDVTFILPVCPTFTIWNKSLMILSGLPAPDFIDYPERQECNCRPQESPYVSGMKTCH
For T796M, the “effect of a mutation on the interaction” value was “with no effect”.

Variants of: B3
Conditions: with max_human MAX
For Q251E, the “effect of a mutation on the interaction” value was “with no effect”.

Variants of: B4
Conditions: with lrrf2_human LRRFIP2, Q9Y608
With E241G the “effect of a mutation on the interaction” value was “with no effect”.

Variants of: B5
Conditions: with rab2a_human RAB2A
In the case of S40L, the “effect of a mutation on the interaction” value is reported as “with no effect”.

Variants of: B6
Conditions: with tsn4_human TSPAN4, O14817
For R74Q, the “effect of a mutation on the interaction” value was “with no effect”. A115T was tested, and the “effect of a mutation on the interaction” value was “with no effect”.

Variants of: B7
Conditions: with klc3_human KLC3, Q6P597
klc3_human KLC3, Q6P597, sequence (Q6P597 whole entry): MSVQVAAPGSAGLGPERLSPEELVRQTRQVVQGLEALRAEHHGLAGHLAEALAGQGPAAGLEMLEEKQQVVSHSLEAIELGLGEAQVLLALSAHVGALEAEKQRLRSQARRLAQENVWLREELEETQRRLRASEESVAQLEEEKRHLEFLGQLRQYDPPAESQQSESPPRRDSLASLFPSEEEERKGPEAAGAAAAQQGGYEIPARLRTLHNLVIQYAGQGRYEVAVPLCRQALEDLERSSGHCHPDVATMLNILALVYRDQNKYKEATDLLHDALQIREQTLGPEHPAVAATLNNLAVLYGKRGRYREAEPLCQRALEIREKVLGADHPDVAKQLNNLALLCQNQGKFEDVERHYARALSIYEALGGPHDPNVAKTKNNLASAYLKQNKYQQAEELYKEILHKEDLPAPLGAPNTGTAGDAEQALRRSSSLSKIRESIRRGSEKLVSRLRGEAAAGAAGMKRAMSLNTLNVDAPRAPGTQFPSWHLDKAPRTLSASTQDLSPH
With E58K the “effect of a mutation on the interaction” value was “with no effect”.
